Test results published in article PMC5655499, “Peptide array-based screening reveals a large number of proteins interacting with the ankyrin-repeat domain of the zDHHC17 S-acyltransferase” (The Journal of Biological Chemistry, 2017).

B1: SLAIN1 (Pro-541) zDABM 12-mer peptide (peptide, UniProt Q8ND83 534-545, looked up)
peptide: PRSKIAQPVRSF
notes: also called SLAI1; SLAIN motif-containing protein 1; source: synthetic peptide, SPOT synthesis on cellulose membrane
B2: PDE4D (Pro-46) zDABM 12-mer peptide (peptide, UniProt Q08499 39-50, looked up)
peptide: HQYPLRQPQFRL
notes: 12-mer of human PDE4D with Pro-46 at position 7 and YP at positions 2-3; source: synthetic peptide, SPOT synthesis on cellulose membrane

Biological target: T1, His6-tagged AR domain (residues 51–288) of zDHHC17 (human, UniProt Q8IUH5 51-288)
T1 construct: ankyrin-repeat (AR) domain of human zDHHC17 (HIP14), residues 51-288; pET303CT-His plasmid; also called ARzD17-His; ARzD17; source: E. coli BL21(DE3)pLysS, purified; not shown: His6 (after a Leu-Glu linker), C-terminal, kept
T1 sequence (looked up): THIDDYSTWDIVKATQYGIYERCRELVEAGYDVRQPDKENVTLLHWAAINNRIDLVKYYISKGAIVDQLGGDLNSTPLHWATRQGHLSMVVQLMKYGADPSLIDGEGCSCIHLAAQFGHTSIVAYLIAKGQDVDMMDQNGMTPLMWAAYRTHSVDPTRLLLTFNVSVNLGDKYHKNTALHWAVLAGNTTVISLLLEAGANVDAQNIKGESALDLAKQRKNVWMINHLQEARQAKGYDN
Experiment: peptide or protein array; far-Western on an array of 109 SPOT-synthesised 12-mer peptides on cellulose membrane; ARzD17-His (51–288) 500 nM in PBS-T overnight at 4 °C; detected with His6 tag antibody; signals normalised to the highest (1000), values <10 non-binders
Conditions: both partners purified

Binder | binding result
B1 | binds
B2 | binds
